Measured values published in patent US20240101668A1 (WUGEN, published 2024).
Residue numbers refer to the chain shown, from its start. Blank lines part the entries; values can stand above or below the binder they belong to.

How the values were obtained:
huCLL1-K244-Avi-Tev-His = biological target: T1, huCLL1-K244-Avi-Tev-His (human, UniProt Q5QGZ9 65-265); test: BLI
T1 construct: extracellular domain
T1 sequence (looked up): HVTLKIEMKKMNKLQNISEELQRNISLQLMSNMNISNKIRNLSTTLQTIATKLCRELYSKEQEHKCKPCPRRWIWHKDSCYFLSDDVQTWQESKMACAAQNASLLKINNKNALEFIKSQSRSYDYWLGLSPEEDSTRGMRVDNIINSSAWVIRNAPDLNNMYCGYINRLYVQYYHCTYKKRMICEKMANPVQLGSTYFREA

huCLL1-Q244-Avi-Tev-His = biological target: T2, huCLL1-Q244-Avi-Tev-His (human, UniProt Q5QGZ9 65-265); test: BLI
T2 construct: extracellular domain; also called CLL-1 K244Q
T2 sequence (looked up): T1 sequence (looked up) with K180Q
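Further: Bio-layer interferometry with scFvs captured on biosensors via anti-V5 antibody, exposed 2 min to CLL-1 K244 or Q244 protein, 5 min dissociation, scored as binding, no binding or ambiguous.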

B2: Polypeptide No. 74 (scFv, V domains shown)
VH: QVQLVQSGAEVKKPGSSVKVSCKASGYTFTKYEINWVRQAPGQGLEWMGGIIPIFGTANYAQKFQGRVTITADESTSTAYMELSSLRSEDTAVYYCARGSGWYTPLFDYWGQGTLVTVSS
VL: DIQMTQSPSSLSASVGDRVTITCRASQGISNNLNWYQQKPGKAPKLLIYDASYLETGVPSRFSGSGSGTDFTLTISSLQPEDFATYYCQQSYSAPLTFGQGTKVEIKR
notes: scFv
binding result (huCLL1-K244-Avi-Tev-His): no binding
binding result (huCLL1-Q244-Avi-Tev-His): binds

B5: Polypeptide No. 67 (scFv, V domains shown)
VH: QVQLVQSGAEVKKPGASVKVSCKASGDTFTRHYVHWVRQAPGQGLEWMGRVNPRDGRTNSAQKFQGRVTMTRDTSTSTVYMELSSLRSEDTAVYYCAKDMFPTVTGTYYYYGMDVWGQGTTVTVSS
VL: DIQMTQSPSSLSASVGDRVTITCRASQGISSYLAWYQQKPGKAPKLLIYDASNLETGVPSRFSGSGSGTDFTLTISSLQPEDFATYYCQQASGFPYTFGQGTRLEIKR
notes: scFv
binding result (huCLL1-K244-Avi-Tev-His): no binding
binding result (huCLL1-Q244-Avi-Tev-His): binds

B7: Polypeptide No. 68 (scFv, V domains shown)
VH: QVQLVQSGAEVKKPGASVKVSCKASGYTFSSYDINWVRQAPGQGLEWVGWINPRNGGTDYAQKFQGRVTMTRDTSTSTVYMELSSLRSEDTAVYYCARHRWELDSFDYWGQGTLVTVSS
VL: DIQMTQSPSSLSASVGDRVTITCRASQSISNYLNWYQQKPGKAPKLLIYATSSLQSGVPSRFSGSGSGTDFTLTISSLQPEDFATYYCQQGYNIPFTFGQGTKLEIKR
notes: scFv
binding result (huCLL1-K244-Avi-Tev-His): no binding
binding result (huCLL1-Q244-Avi-Tev-His): binds

B8: Polypeptide No. 70 (scFv, V domains shown)
VH: EVQLLESGGGLVQPGGSLRLSCAASGMSVTSNHMSWVRQAPGKGLEWVSSIYPDGKTYYADSVKGRFTISRDNSKNTLYLQMNSLRAEDTAVYYCARDEEDWFDPWGQGTLVTVSS
VL: B2 VL with R24Q, G28S, N32W, N34A, D50A, Y53T, E55Q, T56S, A94T, L96W
notes: scFv
binding result (huCLL1-K244-Avi-Tev-His): no binding
binding result (huCLL1-Q244-Avi-Tev-His): binds

Continued, values first:

binding result (huCLL1-K244-Avi-Tev-His): no binding
binding result (huCLL1-Q244-Avi-Tev-His): binds
B1: Polypeptide No. 72 (scFv, V domains shown)
VH: QVQLVQSGAEVKKPGASVKVSCKASGGTFSNYAISWVRQAPGQGLEWMGWISAYNGNSDYAQNLQGRVTMTRDTSTSTVYMELSSLRSEDTAVYYCAIGDYFDYWGQGTLVTVSS
VL: B2 VL with R24Q, Q27E, G28D, S30N, N31K, N32Y, Y53N, S91A, Y92N, A94F
notes: scFv

binding result (huCLL1-K244-Avi-Tev-His): no binding
binding result (huCLL1-Q244-Avi-Tev-His): binds
B3: Polypeptide No. 71 (scFv, V domains shown)
VH: EVQLLESGGGLVQPGGSLRLSCAASGFTFSNHYMSWVRQAPGKGLEWVAVIWPDGSKEYYADSVKGRFTISRDNSKNTLYLQMNSLRAEDTAVYYCAREDYYGSGMDYWGQGTLVTVSS
VL: DIQMTQSPSSLSASVGDRVTITCQASQDISNYLNWYQQKPGKAPKLLIYGASTLQSGVPSRFSGSGSGTDFTLTISSLQPEDFATYYCQQYDSYPPTFGGGTKVEIKR
notes: scFv

binding result (huCLL1-K244-Avi-Tev-His): no binding
binding result (huCLL1-Q244-Avi-Tev-His): binds
B4: Polypeptide No. 76 (scFv, V domains shown)
VH: QVQLVQSGAEVKKPGASVKVSCKASGYTFTTYYMHWVRQAPGQGLEWMGIINVSAGTTSYAQKFQGRVTMTRDTSTSTVYMELSSLRSEDTAVYYCAKEPYPHQSGWFFDYWGQGTLVTVSS
VL: B3 VL with S30N, G50D, T53N, Q55E, S56T, Y91A, D92N, Y94F, P96L
notes: scFv

binding result (huCLL1-K244-Avi-Tev-His): no binding
binding result (huCLL1-Q244-Avi-Tev-His): binds
B6: Polypeptide No. 78 (scFv, V domains shown)
VH: QVQLVQSGAEVKKPGSSVKVSCKASGGTFSRYPFSWVRQAPGQGLEWMGWMNPNNGDTGYAQKFQGRVTITADESTSTAYMELSSLRSEDTAVYYCARGDYPYMDVWGKGTTVTVSS
VL: B2 VL with R24Q, G28D, N32Y, Y53N, A94I, L96Y, V104L
notes: scFv

binding result (huCLL1-K244-Avi-Tev-His): no binding
binding result (huCLL1-Q244-Avi-Tev-His): binds
B9: Polypeptide No. 80 (scFv, V domains shown)
VH: QVQLVQSGAEVKKPGASVKVSCKASGFTFTSYYMHWVRQAPGQGLEWMGWMNPNSGNTGYAQRFQGRVTMTRDTSTSTVYMELSSLRSEDTAVYYCARGHSRTDYGMDVWGQGTTVTVSS
VL: B7 VL with N31S, Y32W, N34A, A50D, N93S, I94T, F96L, L104V
notes: scFv
